Reference: US20090187998A1

Biological target: wild-type serum response factor (SRF) in mouse heart (mouse) (UniProt Q9JM73)
Assay: cell-based or functional assay

Sequence of UniProt Q9JM73 (Q9JM73 whole entry): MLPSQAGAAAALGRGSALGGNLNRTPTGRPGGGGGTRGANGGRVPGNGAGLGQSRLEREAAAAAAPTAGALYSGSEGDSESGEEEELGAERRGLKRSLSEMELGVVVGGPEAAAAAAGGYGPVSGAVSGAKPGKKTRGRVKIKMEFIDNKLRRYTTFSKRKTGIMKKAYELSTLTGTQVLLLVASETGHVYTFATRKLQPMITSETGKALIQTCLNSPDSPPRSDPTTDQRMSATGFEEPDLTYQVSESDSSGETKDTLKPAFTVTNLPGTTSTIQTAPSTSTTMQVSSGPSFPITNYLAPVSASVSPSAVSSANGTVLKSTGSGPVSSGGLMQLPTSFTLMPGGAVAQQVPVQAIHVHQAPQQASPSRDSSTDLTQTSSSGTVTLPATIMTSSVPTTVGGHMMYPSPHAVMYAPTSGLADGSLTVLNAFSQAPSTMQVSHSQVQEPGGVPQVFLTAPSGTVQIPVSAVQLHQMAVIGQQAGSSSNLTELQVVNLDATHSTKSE

EMSA: binding of SRF in heart protein lysate to the biotin-labeled wild-type SRE probe (Mild-R SRF Tg vs Non-Tg): 47 % reduced
Substance: dominant negative mutant form of human SRF (Thr->Ser at position 159 and Lys->Glu at position 163 of SRF) (from UniProt P11831 1-508)
